{"source": "patent US7657380", "binders": {"B1": {"name": "AC10 H3.1/L3 (antibody, IgG1, name in Kabat numbering, V domains shown)", "VH": "EIQLVQSGPEVKKPGASVKVSCKASGYTFTDYYITWVRQAPGQGLEWMGWIYPGSGNTKYNEKFQGRFVFSVDTSASTAYLQISSLKAEDTAVYFCANYGNYWFAYWGQGTLVTVSS", "VL": "DIVLTQSPDSLAVSLGERATINCKASQSVDFDGDSYMNWYQQKPGQPPKVLIYAASNLESGIPARFSGSGSGTDFTLTINSLEAEDAATYYCQQSNEDPWTFGGGTKVEIK"}, "B2": {"name": "AC10 H3.14/L3 (antibody, IgG1, name in Kabat numbering, V domains shown)", "VH": "B1 VH with E1Q, I34M", "VL": "B1 VL"}, "B3": {"name": "AC10 H3.13/L3 (antibody, IgG1, name in Kabat numbering, V domains shown)", "VH": "B1 VH with E1Q, I34L", "VL": "B1 VL"}, "B4": {"name": "AC10 H3.3/L3 (antibody, IgG1, name in Kabat numbering, V domains shown)", "VH": "B1 VH with E1Q, I2M", "VL": "B1 VL"}, "B5": {"name": "AC10 H3.19/L3 (antibody, IgG1, name in Kabat numbering, V domains shown)", "VH": "B1 VH with E1Q, T35S", "VL": "B1 VL"}, "B6": {"name": "AC10 H3.17/L3 (antibody, IgG1, name in Kabat numbering, V domains shown)", "VH": "B1 VH with E1Q, T35H", "VL": "B1 VL"}, "B7": {"name": "AC10 H3.8/L3 (antibody, IgG1, name in Kabat numbering, V domains shown)", "VH": "B1 VH with E1Q, D31G", "VL": "B1 VL"}, "B8": {"name": "AC10 H3.4/L3 (antibody, IgG1, name in Kabat numbering, V domains shown)", "VH": "B1 VH with E1Q, I2V", "VL": "B1 VL"}, "B9": {"name": "AC10 H3.18/L3 (antibody, IgG1, name in Kabat numbering, V domains shown)", "VH": "B1 VH with E1Q, T35N", "VL": "B1 VL"}, "B10": {"name": "AC10 H3.5/L3 (antibody, IgG1, name in Kabat numbering, V domains shown)", "VH": "B1 VH with E1Q, P9A", "VL": "B1 VL"}, "B11": {"name": "AC10 H3.20/L3 (antibody, IgG1, name in Kabat numbering, V domains shown)", "VH": "B1 VH with E1Q, G44A", "VL": "B1 VL"}, "B12": {"name": "AC10 H3.16/L3 (antibody, IgG1, name in Kabat numbering, V domains shown)", "VH": "B1 VH with E1Q, T35G", "VL": "B1 VL"}, "B13": {"name": "AC10 H3.2/L3 (antibody, IgG1, name in Kabat numbering, V domains shown)", "VH": "B1 VH with E1Q, I2L", "VL": "B1 VL"}, "B14": {"name": "AC10 H3.12/L3 (antibody, IgG1, name in Kabat numbering, V domains shown)", "VH": "B1 VH with E1Q, Y33W", "VL": "B1 VL"}, "B15": {"name": "AC10 H3.6/L3 (antibody, IgG1, name in Kabat numbering, V domains shown)", "VH": "B1 VH with E1Q, A16T", "VL": "B1 VL"}, "B16": {"name": "AC10 H3.7/L3 (antibody, IgG1, name in Kabat numbering, V domains shown)", "VH": "B1 VH with E1Q, A24V", "VL": "B1 VL"}, "B17": {"name": "AC10 H3.11/L3 (antibody, IgG1, name in Kabat numbering, V domains shown)", "VH": "B1 VH with E1Q, Y33G", "VL": "B1 VL"}, "B18": {"name": "AC10 H3.9/L3 (antibody, IgG1, name in Kabat numbering, V domains shown)", "VH": "B1 VH with E1Q, D31S", "VL": "B1 VL"}}, "note": "Changes are numbered by the printed parent chain.", "data": [{"target": "T1, human CD30 (commercial, conjugated to digoxigenin) (human, UniProt P28908 19-379, limits assumed, conjugated to digoxigenin (DIG))", "T1 sequence (looked up)": "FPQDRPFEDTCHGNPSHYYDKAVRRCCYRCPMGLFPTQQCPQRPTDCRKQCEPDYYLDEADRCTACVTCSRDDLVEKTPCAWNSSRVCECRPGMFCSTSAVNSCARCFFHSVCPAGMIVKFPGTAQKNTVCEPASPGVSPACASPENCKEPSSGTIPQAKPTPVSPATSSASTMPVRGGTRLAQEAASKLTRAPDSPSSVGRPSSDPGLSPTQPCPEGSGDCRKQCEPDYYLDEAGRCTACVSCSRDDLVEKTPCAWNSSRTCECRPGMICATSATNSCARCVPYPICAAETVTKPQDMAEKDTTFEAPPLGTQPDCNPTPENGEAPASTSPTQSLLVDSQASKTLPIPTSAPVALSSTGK", "assay": "AlphaScreen competition", "units": {"Fold IC50 vs H3/L3": "fold"}, "values": [{"binder": "B1", "Fold IC50 vs H3/L3": 1}, {"binder": "B2", "Fold IC50 vs H3/L3": 1.62}, {"binder": "B3", "Fold IC50 vs H3/L3": 1.52}, {"binder": "B4", "Fold IC50 vs H3/L3": 0.68}, {"binder": "B5", "Fold IC50 vs H3/L3": 1.11}, {"binder": "B6", "Fold IC50 vs H3/L3": 0.04}, {"binder": "B7", "Fold IC50 vs H3/L3": 1.4}, {"binder": "B8", "Fold IC50 vs H3/L3": 1.28}, {"binder": "B9", "Fold IC50 vs H3/L3": 0.13}, {"binder": "B10", "Fold IC50 vs H3/L3": 1.29}, {"binder": "B11", "Fold IC50 vs H3/L3": 2.04}, {"binder": "B12", "Fold IC50 vs H3/L3": 0.15}, {"binder": "B13", "Fold IC50 vs H3/L3": 2.76}, {"binder": "B14", "Fold IC50 vs H3/L3": 0}, {"binder": "B15", "Fold IC50 vs H3/L3": 1.13}, {"binder": "B16", "Fold IC50 vs H3/L3": 4.45}, {"binder": "B17", "Fold IC50 vs H3/L3": 0.73}, {"binder": "B18", "Fold IC50 vs H3/L3": 1.65}]}]}
